Measurements published in patent publication US20200270362A1 (HARPOON THERAPEUTICS, published 2020).

Target: T1, TriTAC 75
T1 construct: Single-chain MSLN/albumin/CD3 trispecific protein, 6xHis
Assay: Affinity measurement, method not stated; row 'Kd huCD3E' (faint print)

T1 sequence (chain, as listed by the source): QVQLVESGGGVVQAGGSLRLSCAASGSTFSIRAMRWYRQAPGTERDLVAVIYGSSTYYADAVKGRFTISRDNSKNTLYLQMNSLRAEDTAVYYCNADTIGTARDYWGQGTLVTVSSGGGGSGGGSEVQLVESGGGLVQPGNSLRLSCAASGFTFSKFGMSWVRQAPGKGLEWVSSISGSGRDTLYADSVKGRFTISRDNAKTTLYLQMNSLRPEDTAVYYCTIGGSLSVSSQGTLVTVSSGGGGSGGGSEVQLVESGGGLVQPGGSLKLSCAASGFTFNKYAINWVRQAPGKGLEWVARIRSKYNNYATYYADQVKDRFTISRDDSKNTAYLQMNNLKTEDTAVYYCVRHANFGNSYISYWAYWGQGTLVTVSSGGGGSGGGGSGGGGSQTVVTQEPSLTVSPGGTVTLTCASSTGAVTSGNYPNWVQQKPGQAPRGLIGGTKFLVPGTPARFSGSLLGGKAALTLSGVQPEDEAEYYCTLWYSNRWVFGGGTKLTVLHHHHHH

B1: human CD3ε (receptor, UniProt P07766 23-126, looked up)
chain: DGNEEMGGITQTPYKVSISGTTVILTCPQYPGSEILWQHNDKNIGGDEDDKNIGSDEDHLSLKEFSELEQSGYYVCYPRGSKPEDANFYLYLRARVCENCMEMD
notes: also called human CD3c (so in the source)
Kd: 10 nM
